{"source": "patent US10464978B2", "about": "“Peptides and combination of peptides for use in immunotherapy against ovarian cancer and other cancers” (immatics biotechnologies GmbH, priority 2015, dated 2019)"}
{"target": "HLA-A*02:01 (Homo sapiens, UniProt P04439, D140Y/D185E/D98H/E176V/E277Q/G131W/G231S/I119V/I121R/I166T/I218V/L300P/L318F/N151K/N90K/P208A/P217A/Q86G/Q94H/R138H/R169H/T345S)", "test": "MHC binding assay: UV-ligand exchange with beta2m ELISA (peptide exchange yield)", "details": "binding to HLA-A*02:01", "summary_of_the_method": "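Values give exchange yield, measured by β2m ELISA: 100-fold-diluted monomers bound to streptavidin plates (1h, 37° C), probed with HRP anti-β2m at 2 ug/ml and read at 450 nm after TMB. Monomers came from UV-triggered cleavage of a photolabile peptide and exchange for the test peptide.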"}
{"substance": "567 (SLLPLDDIVRV; listed as Homo sapiens) [compound 567]", "Peptide exchange (MHC class I binding score, peptide exchange yield)": "“+++” (≥50 = +++)"}
{"substance": "568 (TLYDIAHTPGV; listed as Homo sapiens) [compound 568]", "Peptide exchange (MHC class I binding score, peptide exchange yield)": "“++++” (≥75% = ++++)"}
{"substance": "569 (KLVDRTWTL; listed as Homo sapiens) [compound 569]", "Peptide exchange (MHC class I binding score, peptide exchange yield)": "“+++” (≥50 = +++)"}
{"substance": "570 (ALANQIPTV; listed as Homo sapiens) [compound 570]", "Peptide exchange (MHC class I binding score, peptide exchange yield)": "“++” (≥20% = ++)"}
{"substance": "571 (LLLTTIPQI; listed as Homo sapiens) [compound 571]", "Peptide exchange (MHC class I binding score, peptide exchange yield)": "“+++” (≥50 = +++)"}
{"substance": "572 (ALADLIEKELSV; listed as Homo sapiens) [compound 572]", "Peptide exchange (MHC class I binding score, peptide exchange yield)": "“+++” (≥50 = +++)"}
{"substance": "573 (ILVANAIVGV; listed as Homo sapiens) [compound 573]", "Peptide exchange (MHC class I binding score, peptide exchange yield)": "“+++” (≥50 = +++)"}
{"substance": "574 (YLLQEPPRTV; listed as Homo sapiens) [compound 574]", "Peptide exchange (MHC class I binding score, peptide exchange yield)": "“++” (≥20% = ++)"}
{"substance": "575 (YLISQVEGHQV; listed as Homo sapiens) [compound 575]", "Peptide exchange (MHC class I binding score, peptide exchange yield)": "“+++” (≥50 = +++)"}
{"substance": "576 (ILLNNSGQIKL; listed as Homo sapiens) [compound 576]", "Peptide exchange (MHC class I binding score, peptide exchange yield)": "“++++” (≥75% = ++++)"}
{"substance": "577 (VMFEDGVLMRL; listed as Homo sapiens) [compound 577]", "Peptide exchange (MHC class I binding score, peptide exchange yield)": "“+++” (≥50 = +++)"}
{"substance": "578 (FLDPGGPMMKL; listed as Homo sapiens) [compound 578]", "Peptide exchange (MHC class I binding score, peptide exchange yield)": "“+++” (≥50 = +++)"}
{"substance": "579 (NLMEMVAQL; listed as Homo sapiens) [compound 579]", "Peptide exchange (MHC class I binding score, peptide exchange yield)": "“++” (≥20% = ++)"}
{"substance": "580 (LLMENAERV; listed as Homo sapiens) [compound 580]", "Peptide exchange (MHC class I binding score, peptide exchange yield)": "“++” (≥20% = ++)"}
{"substance": "582 (TLCDVILMV; listed as Homo sapiens) [compound 582]", "Peptide exchange (MHC class I binding score, peptide exchange yield)": "“+++” (≥50 = +++)"}
{"substance": "583 (ILANDGVLLAA; listed as Homo sapiens) [compound 583]", "Peptide exchange (MHC class I binding score, peptide exchange yield)": "“+++” (≥50 = +++)"}
{"substance": "584 (ALAEVAAMENV; listed as Homo sapiens) [compound 584]", "Peptide exchange (MHC class I binding score, peptide exchange yield)": "“+++” (≥50 = +++)"}
{"substance": "585 (ALWDLAADKQTL; listed as Homo sapiens) [compound 585]", "Peptide exchange (MHC class I binding score, peptide exchange yield)": "“++++” (≥75% = ++++)"}
{"substance": "586 (KLKPGDLVGV; listed as Homo sapiens) [compound 586]", "Peptide exchange (MHC class I binding score, peptide exchange yield)": "“+++” (≥50 = +++)"}
{"substance": "587 (VMNDRLYAI; listed as Homo sapiens) [compound 587]", "Peptide exchange (MHC class I binding score, peptide exchange yield)": "“+++” (≥50 = +++)"}
{"substance": "588 (SLLPLSHLV; listed as Homo sapiens) [compound 588]", "Peptide exchange (MHC class I binding score, peptide exchange yield)": "“+++” (≥50 = +++)"}
{"substance": "589 (KLYPQLPAEI; listed as Homo sapiens) [compound 589]", "Peptide exchange (MHC class I binding score, peptide exchange yield)": "“+++” (≥50 = +++)"}
{"substance": "590 (SLIEKLWQT; listed as Homo sapiens) [compound 590]", "Peptide exchange (MHC class I binding score, peptide exchange yield)": "“++” (≥20% = ++)"}
{"substance": "591 (SMAELDIKL; listed as Homo sapiens) [compound 591]", "Peptide exchange (MHC class I binding score, peptide exchange yield)": "“+++” (≥50 = +++)"}
{"substance": "592 (RLLSAAENFL; listed as Homo sapiens) [compound 592]", "Peptide exchange (MHC class I binding score, peptide exchange yield)": "“+++” (≥50 = +++)"}
{"substance": "593 (GLPRFGIEMV; listed as Homo sapiens) [compound 593]", "Peptide exchange (MHC class I binding score, peptide exchange yield)": "“+++” (≥50 = +++)"}
{"substance": "594 (IMLKGDNITL; listed as Homo sapiens) [compound 594]", "Peptide exchange (MHC class I binding score, peptide exchange yield)": "“+++” (≥50 = +++)"}
{"substance": "595 (VLLSIYPRV; listed as Homo sapiens) [compound 595]", "Peptide exchange (MHC class I binding score, peptide exchange yield)": "“+++” (≥50 = +++)"}
{"substance": "596 (ALLDQTKTLAESAL; listed as Homo sapiens) [compound 596]", "Peptide exchange (MHC class I binding score, peptide exchange yield)": "“+++” (≥50 = +++)"}
{"substance": "597 (KLLEGQVIQL; listed as Homo sapiens) [compound 597]", "Peptide exchange (MHC class I binding score, peptide exchange yield)": "“+++” (≥50 = +++)"}
{"substance": "598 (FLFPHSVLV; listed as Homo sapiens) [compound 598]", "Peptide exchange (MHC class I binding score, peptide exchange yield)": "“+++” (≥50 = +++)"}
{"substance": "599 (YLLNDASLISV; listed as Homo sapiens) [compound 599]", "Peptide exchange (MHC class I binding score, peptide exchange yield)": "“+++” (≥50 = +++)"}
{"substance": "600 (ALAAPDIVPAL; listed as Homo sapiens) [compound 600]", "Peptide exchange (MHC class I binding score, peptide exchange yield)": "“+++” (≥50 = +++)"}
{"substance": "601 (SAFPFPVTV; listed as Homo sapiens) [compound 601]", "Peptide exchange (MHC class I binding score, peptide exchange yield)": "“+++” (≥50 = +++)"}
{"substance": "602 (YLLEQIKLIEV; listed as Homo sapiens) [compound 602]", "Peptide exchange (MHC class I binding score, peptide exchange yield)": "“++++” (≥75% = ++++)"}
{"substance": "603 (FLIEPEHVNTV; listed as Homo sapiens) [compound 603]", "Peptide exchange (MHC class I binding score, peptide exchange yield)": "“++” (≥20% = ++)"}
{"substance": "604 (SILDRDDIFV; listed as Homo sapiens) [compound 604]", "Peptide exchange (MHC class I binding score, peptide exchange yield)": "“+++” (≥50 = +++)"}
{"substance": "605 (KLYEAVPQL; listed as Homo sapiens) [compound 605]", "Peptide exchange (MHC class I binding score, peptide exchange yield)": "“+++” (≥50 = +++)"}
{"substance": "606 (ALWETEVYI; listed as Homo sapiens) [compound 606]", "Peptide exchange (MHC class I binding score, peptide exchange yield)": "“+++” (≥50 = +++)"}
{"substance": "607 (RLYSGISGLEL; listed as Homo sapiens) [compound 607]", "Peptide exchange (MHC class I binding score, peptide exchange yield)": "“+++” (≥50 = +++)"}
{"substance": "608 (SLLSVSHAL; listed as Homo sapiens) [compound 608]", "Peptide exchange (MHC class I binding score, peptide exchange yield)": "“+++” (≥50 = +++)"}
{"substance": "609 (ALWKQLLEL; listed as Homo sapiens) [compound 609]", "Peptide exchange (MHC class I binding score, peptide exchange yield)": "“+++” (≥50 = +++)"}
{"substance": "610 (LLAPTPYIIGV; listed as Homo sapiens) [compound 610]", "Peptide exchange (MHC class I binding score, peptide exchange yield)": "“+++” (≥50 = +++)"}
{"substance": "611 (YLLDDGTLVV; listed as Homo sapiens) [compound 611]", "Peptide exchange (MHC class I binding score, peptide exchange yield)": "“++++” (≥75% = ++++)"}
{"substance": "612 (YLYNEGLSV; listed as Homo sapiens) [compound 612]", "Peptide exchange (MHC class I binding score, peptide exchange yield)": "“+++” (≥50 = +++)"}
{"substance": "613 (RLLPPGAVVAV; listed as Homo sapiens) [compound 613]", "Peptide exchange (MHC class I binding score, peptide exchange yield)": "“+++” (≥50 = +++)"}
{"substance": "614 (LLLPDQPPYHL; listed as Homo sapiens) [compound 614]", "Peptide exchange (MHC class I binding score, peptide exchange yield)": "“+++” (≥50 = +++)"}
{"substance": "615 (VLPPDTDPA; listed as Homo sapiens) [compound 615]", "Peptide exchange (MHC class I binding score, peptide exchange yield)": "“++” (≥20% = ++)"}
{"substance": "616 (VLIDEVESL; listed as Homo sapiens) [compound 616]", "Peptide exchange (MHC class I binding score, peptide exchange yield)": "“+++” (≥50 = +++)"}
{"substance": "617 (ALMYESEKVGV; listed as Homo sapiens) [compound 617]", "Peptide exchange (MHC class I binding score, peptide exchange yield)": "“+++” (≥50 = +++)"}
{"substance": "618 (VLFDSESIGIYV; listed as Homo sapiens) [compound 618]", "Peptide exchange (MHC class I binding score, peptide exchange yield)": "“+++” (≥50 = +++)"}
{"substance": "619 (ALQDRVPLA; listed as Homo sapiens) [compound 619]", "Peptide exchange (MHC class I binding score, peptide exchange yield)": "“+++” (≥50 = +++)"}
{"substance": "620 (KLLNKIYEA; listed as Homo sapiens) [compound 620]", "Peptide exchange (MHC class I binding score, peptide exchange yield)": "“++++” (≥75% = ++++)"}
{"substance": "621 (VLMDRLPSLL; listed as Homo sapiens) [compound 621]", "Peptide exchange (MHC class I binding score, peptide exchange yield)": "“++++” (≥75% = ++++)"}
{"substance": "622 (RLLGEEVVRVLQA; listed as Homo sapiens) [compound 622]", "Peptide exchange (MHC class I binding score, peptide exchange yield)": "“+++” (≥50 = +++)"}
{"substance": "623 (YLVEDIQHI; listed as Homo sapiens) [compound 623]", "Peptide exchange (MHC class I binding score, peptide exchange yield)": "“+++” (≥50 = +++)"}
{"substance": "635 (SLDSTLHAV; listed as Homo sapiens) [compound 635]", "Peptide exchange (MHC class I binding score, peptide exchange yield)": "“+++” (≥50 = +++)"}
